# According to publication PMC12052392 (2025):
# Numbering of substitutions follows the chain as printed. “And” between values parts separate entries of the source, which are not always exact repeats. Equal values may be shown once.
# T1: SARS-CoV-2 S2 (T1076-Q1208) antigen, trimeric S2 fusion-core-based antigen (SARS-CoV-2, UniProt P0DTC2 1076-1208)
# T1 chain: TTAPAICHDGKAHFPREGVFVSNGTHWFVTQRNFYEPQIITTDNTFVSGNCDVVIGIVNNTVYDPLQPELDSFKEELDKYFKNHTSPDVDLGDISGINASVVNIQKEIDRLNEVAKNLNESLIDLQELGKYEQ
# T2: GST-fused truncated S2 protein S2 (D1139-E1151) (SARS-CoV-2, UniProt P0DTC2 1139-1151)
# T2 chain: DPLQPELDSFKEE
# B1: nanobody H145 (VHH)
# VHH: QVQLVESGGGLVQTGGSLRLSCEASGSAFSSYAVNWYRQAPGKQREPVAAIGSFNTVYSDSVKGRFTISRDNAKNTVYLQMNSLKPEDTAVYICNARRGATNTWGQGTQVTVSS
# modifications: biotin (Biotinylation Kit), only in the BLI with truncated S2 proteins
# B2: nanobody H17 (VHH)
# VHH: B1 VHH with Q1E, L4V, E23A, I93V, T103Y, S114P
# modifications: biotin (Biotinylation Kit), only in the BLI with truncated S2 proteins
# Columns and labels:
# [1] = target: S2 (D1139-D1153); assay: ELISA
# [2] = target: S2 (G1124-H1159); assay: ELISA
# [3] = target: T1, SARS-CoV-2 S2 (T1076-Q1208) antigen, …; assay: BLI
# [4] = target: T2, GST-fused truncated S2 protein S2 …; assay: ELISA
Binder,EC50 [1] [nM],EC50 [2] [nM],koff [3],EC50 [4] [nM]
B1,1.01,0.53,0.000149 s⁻¹ and 0.000129 s⁻¹ and 0.000123 s⁻¹,> 170
B2,4.83,4.71,0.000525 s⁻¹ and 0.00023 s⁻¹,–
